This is an account of results in PMC10410066.

For assay [1], the target named is inhibitor of nuclear factor kappa B kinase subunit beta (IKBKB), FLAG-tagged (UniProt O14920). The experiment in a line: ELISA protein-protein interaction assay (2B7 capture, anti-FLAG detection). The conditions noted are these: lysates of HEK293T cells co-overexpressing N571 Q55 HTT WT or S13A/S16A and FLAG-tagged IKBKB; parent: est. 100; read off a plot. In general terms: ELISA stands for enzyme-linked immunosorbent assay.

Assay [2] has as its target N571 Q55 HTT (N-terminal huntingtin fragment 1-571 with 55 glutamines). The description is as above. The conditions noted are these: lysates of HEK293T cells co-overexpressing N571 Q55 HTT and FLAG-tagged IKBKB construct; parent: est. 100; read off a plot.

“N571 Q55 HTT (N-terminal huntingtin fragment 1-571 with 55 glutamines) S13A; S16A”: the percent of parent in assay [1] was 100%.

With “inhibitor of nuclear factor kappa B kinase subunit beta (IKBKB), FLAG-tagged (from UniProt O14920) K44A”, the percent of parent in assay [2] turned out to be 17%. On the same count and under the same terms, next, “inhibitor of nuclear factor kappa B kinase subunit beta (IKBKB), FLAG-tagged (from UniProt O14920) S177E; S181E”: 190%. Consider “inhibitor of nuclear factor kappa B kinase subunit beta (IKBKB), FLAG-tagged (from UniProt O14920) W739A; W741A”, for which the percent of parent in assay [2] worked out at 190%.
